Assay results reported in patent US11311626B2, “Plasmin-cleavable anti-insoluble fibrin antibody-drug conjugate” (NATIONAL CANCER CENTER JAPAN, priority 2017, dated 2022).

B1: 99-5: mAb (mouse IgG1) from clone 99-5, mouse immunized with peptide of SEQ ID NO: 26; insoluble fibrin-specific antibody; VH SEQ ID NO: 4, VL SEQ ID NO: 8 (antibody, V domains shown)
VH: MDWLWNLLFLMAAAQSIQAQIQLVQSGPELKKPGETVKISCKASGYTFTNYGMNWVKQAPGKGLKWMGWINTKIGEPTYAEEFKGRFAFSLETSASTAYLQINNLKNEDTATYFCARLLDYWGQGTTLTVSSAKTTPPSV
VL: METDTLLLWVLLLWVPGSTGDIVLTQSPASLAVSLGQRATISCRASESVDSYGNSFMHWYQQKPGQPPKLLIYRASNLESGIPARFSGSGSRTDFTLTINPVEADDVATYYCQQSNEDPRTFGGGTKLEIKRADAAPTVS
B2: 1101: mAb (mouse IgG1) from clone 1101, mouse immunized with peptide of SEQ ID NO: 27; insoluble fibrin-specific antibody; VH SEQ ID NO: 12, VL SEQ ID NO: 16 (antibody, V domains shown)
VH: MECNWILPFILSVISGVYSEVQLQQSGTVLARPGASVKMSCKASGFSFTSYWMHWVKQRPGQGLEWIGAIYPGNSDTRNNQKFKGKAKLTAVTSANTAYMELSSLTNEDSAVYYCTRKAHYGNYGFAYWGQGTLVTVSAA
VL: MSGHSRNMKFPSQLLLFLLFRITGIICDIQMTQSSSYLSVSLGGRVTITCKASDHINNWLAWYQQKPGNAPRLLISGATSLETGVPSRFSGSGSGKDYTLSITSLQTEDVATYYCQQYWSTPLTFGAGTKLELKRADAAP

What was measured:
[1] = system: triple mutant mouse-derived pancreatic cancer cell line; settings: Alexa 647-labeled antibody, 300 μg per mouse, tail vein, imaging 1 h to day 7, FIG. 2
Protocol: Accordingly, in vivo imaging was performed using the cell line. […] The pancreatic cancer cell line was cultured in 500 mL of a RPMI 1640 (FUJIFILM Wako Pure Chemical Corporation) medium supplemented with 100 mL of inactivated fetal bovine serum (FBS, Gibco) and 10 mL of 100 units/mL Penicillin, 100 μg/mL Streptomycin, and 250 ng/mL Amphotericin B (FUJIFILM Wako Pure Chemical Corporation). The culture supernatant was then removed. The cells were washed with PBS (Invitrogen), and 2 mL of Trypsin-EDTA [0.25% (w/v) trypsin-1.0 mmol/L ethylenediaminetetraacetic acid-4Na Solution with Phenol Red, FUJIFILM Wako Pure Chemical Corporation] was added thereto. The cells were detached by pipetting and placed in a 15-mL tube (Corning Incorporated), followed by centrifugation with a centrifuge (Universal centrifuge 5800, KUBOTA Corporation Co., Ltd.) at 270×g for 3 minutes at 4° C. The supernatant was removed, and the precipitate was resuspended in 10 mL of PBS, followed by centrifugation at 270×g for 3 minutes at 4° C. After repeating this procedure three times, the concentration was adjusted to 2×10^6 cells/50 μL with PBS, and the cell solution was subcutaneously injected to 5-week old BALB/c Slc nu/nu mice (Japan SLC, Inc.) at 50 μL per mouse from the left foot base. […] The control used was InVivoMAb Mouse IgG1 Isotype control (Bio X Cell). […]

[2] = target: peptide of the epitope site of 102-10 (Homo sapiens, UniProt P02675); test: Verification of affinity by SPR (Biacore T200, multi cycle kinetics); format: binding; settings: for Dissociation rate constant kd: immobilized epitope peptide of 102-10; for Binding rate constant ka: immobilized epitope peptide of 102-10, antibody 48.875-1500 nM; for Kd: immobilized epitope peptide of 102-10, reference for relative affinity
Protocol: When an antigen is insoluble, although SPR is not suitable for verifying the affinity of the antigen, measurement by SPR was performed as reference for comparing relative affinity levels between antibodies.
The affinity of an antibody to insoluble fibrin was calculated based on analysis by surface plasmon resonance (SPR) using Biacore T200 (GE Healthcare) to evaluate the intermolecular interaction of the antibody. […] The immobilization was performed using an amine coupling kit (BR-1000-50, GE Healthcare) and setting the […] to 90 RU. Subsequently, an antigen-antibody reaction was performed using an antibody diluted to […], 93.75, 187.5, 375, 750, and 1500 nM with 1× HBS-N buffer by a multi cycle kinetics method under conditions shown in Table 1. After the measurement, analysis using BIA evaluation (GE Healthcare) was performed to determine the KD value, kd value, and ka value.

Molecule	Accumulation of antibody to cancer [1]	Dissociation rate constant kd [2] [s⁻¹]	Binding rate constant ka [2] [M⁻¹ s⁻¹]	Kd [2] [nM]
B1	high	0.000585	18000	32.6
B2	high	0.00325	93700	66.8
